Source: publication PMC11387744 (Communications Biology, 2024)
Where two headings read alike, the source gives them in different places.

Columns and labels:
[1] = target: T1, KDM2B^F-box-LRRs/SKP1 dimer (UniProt Q8NHM5 1059-1336; P63208 2-163); assay: ITC
[2] = target: T1, KDM2B^F-box-LRRs/SKP1 dimer; assay: ITC; remark: listed apart in the source

T1 sequence (Q8NHM5 1059-1336, chain 1 of 2): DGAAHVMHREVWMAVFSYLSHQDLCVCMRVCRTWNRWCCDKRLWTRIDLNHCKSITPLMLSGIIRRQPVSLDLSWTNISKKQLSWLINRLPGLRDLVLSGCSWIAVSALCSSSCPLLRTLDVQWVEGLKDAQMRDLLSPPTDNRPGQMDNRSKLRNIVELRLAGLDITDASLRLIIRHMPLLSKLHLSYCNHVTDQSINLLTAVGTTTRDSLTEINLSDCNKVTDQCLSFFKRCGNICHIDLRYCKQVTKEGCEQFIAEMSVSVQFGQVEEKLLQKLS
T1 sequence (P63208 2-163, chain 2 of 2): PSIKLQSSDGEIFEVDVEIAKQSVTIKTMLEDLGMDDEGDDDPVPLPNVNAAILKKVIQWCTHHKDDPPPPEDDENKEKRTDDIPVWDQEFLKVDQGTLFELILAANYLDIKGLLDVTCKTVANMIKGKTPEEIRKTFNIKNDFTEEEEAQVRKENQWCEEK

B1: BCOR^N1591/PCGF1^RAWUL dimer (complex)
chain 1: DDDASGTWDFYGSSVCEPDDESGYDVLANPPGPEDQDDDDDAYSDVFEFEFSETPLLPCYNIQVSVAQGPRNWLLLSDVLKKLKMSSRIFRCNFPNVEIVTIAEAEFYRQVSASLLFSCSKDLEAFNPESKELLDLVEFTNEIQTLLGSSVEWLHPSDLASDNYW
chain 2: LPFSSFDHSKAHYYRYDEQLNLCLERLSSGKDKNKSVLQNKYVRCSVRAEVRHLRRVLCHRLMLNPQHVQLLFDNEVLPDHMTMKQIWLSRWFGKPSPLLLQYSVK
[1]
  Kd: 240 nM

B2: BCOR^N1607/PCGF1^RAWUL dimer (complex)
chain 1: EPDDESGYDVLANPPGPEDQDDDDDAYSDVFEFEFSETPLLPCYNIQVSVAQGPRNWLLLSDVLKKLKMSSRIFRCNFPNVEIVTIAEAEFYRQVSASLLFSCSKDLEAFNPESKELLDLVEFTNEIQTLLGSSVEWLHPSDLASDNYW
chain 2: LPFSSFDHSKAHYYRYDEQLNLCLERLSSGKDKNKSVLQNKYVRCSVRAEVRHLRRVLCHRLMLNPQHVQLLFDNEVLPDHMTMKQIWLSRWFGKPSPLLLQYSVK
[1]
  Kd: 270 nM

B3: BCOR^N1624/PCGF1^RAWUL dimer (complex)
chain 1: EDQDDDDDAYSDVFEFEFSETPLLPCYNIQVSVAQGPRNWLLLSDVLKKLKMSSRIFRCNFPNVEIVTIAEAEFYRQVSASLLFSCSKDLEAFNPESKELLDLVEFTNEIQTLLGSSVEWLHPSDLASDNYW
chain 2: LPFSSFDHSKAHYYRYDEQLNLCLERLSSGKDKNKSVLQNKYVRCSVRAEVRHLRRVLCHRLMLNPQHVQLLFDNEVLPDHMTMKQIWLSRWFGKPSPLLLQYSVK
[1]
  Kd: 5930 nM

B4: BCOR^N1612/PCGF1^RAWUL dimer (complex)
chain 1: SGYDVLANPPGPEDQDDDDDAYSDVFEFEFSETPLLPCYNIQVSVAQGPRNWLLLSDVLKKLKMSSRIFRCNFPNVEIVTIAEAEFYRQVSASLLFSCSKDLEAFNPESKELLDLVEFTNEIQTLLGSSVEWLHPSDLASDNYW
chain 2: LPFSSFDHSKAHYYRYDEQLNLCLERLSSGKDKNKSVLQNKYVRCSVRAEVRHLRRVLCHRLMLNPQHVQLLFDNEVLPDHMTMKQIWLSRWFGKPSPLLLQYSVK
[1]
  Kd: 850 nM

B5: BCOR^N1594/PCGF1^RAWUL dimer (complex)
chain 1: ASGTWDFYGSSVCEPDDESGYDVLANPPGPEDQDDDDDAYSDVFEFEFSETPLLPCYNIQVSVAQGPRNWLLLSDVLKKLKMSSRIFRCNFPNVEIVTIAEAEFYRQVSASLLFSCSKDLEAFNPESKELLDLVEFTNEIQTLLGSSVEWLHPSDLASDNYW
chain 2: LPFSSFDHSKAHYYRYDEQLNLCLERLSSGKDKNKSVLQNKYVRCSVRAEVRHLRRVLCHRLMLNPQHVQLLFDNEVLPDHMTMKQIWLSRWFGKPSPLLLQYSVK
[1]
  Kd: 250 nM

B6: BCOR^ANK-linker (residues 1461-1635) (domain or fragment, UniProt Q6W2J9 1461-1635, looked up)
chain: NAGETLLQRAARLGYEEVVLYCLENKICDVNHRDNAGYCALHEACARGWLNIVRHLLEYGADVNCSAQDGTRPLHDAVENDHLEIVRLLLSYGADPTLATYSGRTIMKMTHSELMEKFLTDYLNDLQGRNDDDASGTWDFYGSSVCEPDDESGYDVLANPPGPEDQDDDDDAYSD
[2]
  Kd: 6350 nM
